Reference: publication PMC2860019 (Journal of molecular biology, 2010)

Columns and labels:
[1] = molecular target: Cp(-10)149d (recombinant HBV e-antigen, residues (-10)-149, C48A, C107A, G123A; dimer) (Hepatitis B virus) (UniProt P03147); test: AUC
[2] = molecular target: the molecule itself; test: AUC

| Molecule | stoichiometry N [1] | stoichiometry N [2] |
| --- | --- | --- |
| Cp(-10)149d (recombinant HBV e-antigen, residues (-10)-149, C48A, C107A, G123A; dimer) (from UniProt P03147 1-149) (natural protein) | 2 |  |
| Cp149d (HBV capsid protein residues 1-149, C48A, C107A, G123A; dimer) (domain or fragment) MDIDPYKEFGATVELLSFLPSDFFPSVRDLLDTAAALYRDALESPEHASPHHTALRQAILCWGDLMTLATWVGTNLEDPASRDLVVSYVNTNVGLKFRQLLWFHISALTFGRETVLEYLVSFAVWIRTPPAYRPPNAPILSTLPETTVV |  | 2 |
